Laboratory results reported in US20210292396A1.

Experiments:
Test in all cases: cell-based or functional assay
[1] = target: Env of HIV isolate 00836-2.5 (clade C) (HIV)
[2] = target: Env of HIV isolate 0921.v2.c14 (clade C) (HIV)
[3] = target: Env of HIV isolate 25925-2.22 (clade C) (HIV)
[4] = target: Env of HIV isolate 269-12 (clade AG) (HIV)
[5] = target: Env of HIV isolate 288.38 (clade C) (HIV)
[6] = target: Env of HIV isolate 3326.v4.c3 (clade CD) (HIV)
[7] = target: Env of HIV isolate 3873.v1.c24 (clade C) (HIV)
[8] = target: Env of HIV isolate 6405.v4.c34 (clade D) (HIV)
[9] = target: Env of HIV isolate 96ZM651.02 (clade C) (HIV)
[10] = target: Env of HIV isolate BB539.2B13 (clade A) (HIV)
[11] = target: Env of HIV isolate BJOX010000.06.2 (clade AE) (HIV)
[12] = target: Env of HIV isolate BL01.DG (clade B) (HIV)
[13] = target: Env of HIV isolate CAAN.A2 (clade B) (HIV)
[14] = target: Env of HIV isolate CAP45.G3 (clade C) (HIV)
[15] = target: Env of HIV isolate CH038.12 (clade BC) (HIV)
[16] = target: Env of HIV isolate CM244.ec1 (clade AE) (HIV)
[17] = target: Env of HIV isolate CNE19 (clade BC) (HIV)
[18] = target: Env of HIV isolate CNE20 (clade BC) (HIV)
[19] = target: Env of HIV isolate CNE4 (clade B) (HIV)
[20] = target: Env of HIV isolate CNE53 (clade C in Table 7) (HIV)
[21] = target: Env of HIV isolate CNE57 (clade B) (HIV)
[22] = target: Env of HIV isolate DU172.17 (clade C) (HIV)
[23] = target: Env of HIV isolate JRFL.JB (clade B) (HIV)
[24] = target: Env of HIV isolate KER2018.11 (clade A) (HIV)
[25] = target: Env of HIV isolate Q769.d22 (clade A) (HIV)
[26] = target: Env of HIV isolate SO18.18 (clade C) (HIV)
[27] = target: Env of HIV isolate T266-60 (clade AG) (HIV)
[28] = target: Env of HIV isolate TH023.6 (clade AE) (HIV)
[29] = target: Env of HIV isolate TH966.8 (clade AE) (HIV)
[30] = target: Env of HIV isolate TZA125.17 (clade C) (HIV)
[31] = target: Env of HIV isolate TZBD.02 (clade C) (HIV)
[32] = target: Env of HIV isolate ZM233.6 (clade C) (HIV)
[33] = target: HIV Env of isolate 001428-2.42 (HIV)
[34] = target: HIV Env of isolate 00836-2.5 (HIV)
[35] = target: HIV Env of isolate 191821.E6.1 (HIV)
[36] = target: HIV Env of isolate 288.38 (HIV)
[37] = target: HIV Env of isolate 3168.v4.c10 (HIV)
[38] = target: HIV Env of isolate 3817.v2.c59 (HIV)
[39] = target: HIV Env of isolate 57128.vrc15 (HIV)
[40] = target: HIV Env of isolate 6322.v4.c1 (HIV)
[41] = target: HIV Env of isolate BR025.9 (HIV)
[42] = target: HIV Env of isolate CAP210.E8 (HIV)
[43] = target: HIV Env of isolate CH117.4 (HIV)
[44] = target: HIV Env of isolate CNE19 (HIV)
[45] = target: HIV Env of isolate CNE20 (HIV)
[46] = target: HIV Env of isolate DU422.01 (HIV)
[47] = target: HIV Env of isolate NKU3006.ec1 (HIV)
[48] = target: HIV Env of isolate P0402.c2.11 (HIV)
[49] = target: HIV Env of isolate ZM249.1 (HIV)
[50] = target: HIV Env of isolate ZM55.28a (HIV)

B1: ePGT121.15 (ePGT121.15.H6 VH and ePGT121.15.L1 VL) (antibody, V domains shown)
VH: QMQLQESGPGLVKPGETLSLTCSVSGASISSSYWSWLRETPGKGLEWIGYTHHSGDTNYAPSLKSRVHLGLHPSKNQVSLSLTSVTAADTAVYYCARTLHGRRIYGVVAFNEFFTYFYWEVWGKGTQVTVSS
VL: SDISVAPGETVRISCGGESIGSRAVQWYQHRAGQAPKLIIYNNQDRPPGIPERFSGSPDIDFGTTATLTITNVEAGDEATYYCHIWDSRRPTNWVFGGGTTLTVL
Question: For B1, which IC50, pseudovirus neutralization [1] is on record?
Answer: 2.25 µg/mL

Question: And the IC50, pseudovirus neutralization [2]?
Answer: 0.454 µg/mL

Question: And the IC50, pseudovirus neutralization [3]?
Answer: 7 ng/mL

Question: What about the IC50, pseudovirus neutralization [4] of the same binder?
Answer: 0.011 µg/mL

Question: And the IC50, pseudovirus neutralization [5]?
Answer: 1 ng/mL

Question: What about the IC50, pseudovirus neutralization [6] of the same binder?
Answer: 0.362 µg/mL

Question: And the IC50, pseudovirus neutralization [7]?
Answer: 4 ng/mL

Question: What about the IC50, pseudovirus neutralization [8] of the same binder?
Answer: 3 ng/mL

Question: What about the IC50, pseudovirus neutralization [9] of the same binder?
Answer: 1 ng/mL

Question: And the IC50, pseudovirus neutralization [10]?
Answer: > 50 µg/mL

Question: And the IC50, pseudovirus neutralization [11]?
Answer: > 50 µg/mL

Question: What about the IC50, pseudovirus neutralization [12] of the same binder?
Answer: 13.1 µg/mL

Question: What about the IC50, pseudovirus neutralization [13] of the same binder?
Answer: 5 ng/mL

Question: And the IC50, pseudovirus neutralization [14]?
Answer: 2.25 µg/mL

Question: What about the IC50, pseudovirus neutralization [15] of the same binder?
Answer: 1 ng/mL

Question: What about the IC50, pseudovirus neutralization [16] of the same binder?
Answer: 7.02 µg/mL

Question: And the IC50, pseudovirus neutralization [17]?
Answer: 4 ng/mL

Question: And the IC50, pseudovirus neutralization [18]?
Answer: 3 ng/mL

Question: And the IC50, pseudovirus neutralization [19]?
Answer: 4 ng/mL

Question: And the IC50, pseudovirus neutralization [20]?
Answer: 7 ng/mL

Question: What about the IC50, pseudovirus neutralization [21] of the same binder?
Answer: 4 ng/mL

Question: What about the IC50, pseudovirus neutralization [22] of the same binder?
Answer: 3 ng/mL

Question: And the IC50, pseudovirus neutralization [23]?
Answer: 0.014 µg/mL

Question: What about the IC50, pseudovirus neutralization [24] of the same binder?
Answer: > 50 µg/mL

Question: What about the IC50, pseudovirus neutralization [25] of the same binder?
Answer: > 50 µg/mL

Question: What about the IC50, pseudovirus neutralization [26] of the same binder?
Answer: 4 ng/mL

Question: What about the IC50, pseudovirus neutralization [27] of the same binder?
Answer: 6 ng/mL

Question: And the IC50, pseudovirus neutralization [28]?
Answer: > 50 µg/mL

Question: What about the IC50, pseudovirus neutralization [29] of the same binder?
Answer: > 50 µg/mL

Question: And the IC50, pseudovirus neutralization [30]?
Answer: 0.07 µg/mL

Question: And the IC50, pseudovirus neutralization [31]?
Answer: 3 ng/mL

Question: And the IC50, pseudovirus neutralization [32]?
Answer: 0.016 µg/mL

Question: What about the IC80, pseudovirus neutralization [33] of the same binder?
Answer: 5 ng/mL

Question: And the IC80, pseudovirus neutralization [34]?
Answer: > 50 µg/mL

Question: What about the IC80, pseudovirus neutralization [35] of the same binder?
Answer: 3 µg/mL

Question: What about the IC80, pseudovirus neutralization [36] of the same binder?
Answer: 5 ng/mL

Question: What about the IC80, pseudovirus neutralization [37] of the same binder?
Answer: 0.075 µg/mL

Question: And the IC80, pseudovirus neutralization [38]?
Answer: 7.22 µg/mL

Question: What about the IC80, pseudovirus neutralization [39] of the same binder?
Answer: 0.026 µg/mL

Question: And the IC80, pseudovirus neutralization [40]?
Answer: > 50 µg/mL

Question: What about the IC80, pseudovirus neutralization [41] of the same binder?
Answer: 6 ng/mL

Question: What about the IC80, pseudovirus neutralization [42] of the same binder?
Answer: 0.268 µg/mL

Question: What about the IC80, pseudovirus neutralization [43] of the same binder?
Answer: > 50 µg/mL

Question: And the IC80, pseudovirus neutralization [44]?
Answer: 0.03 µg/mL

Question: And the IC80, pseudovirus neutralization [45]?
Answer: 5 ng/mL

Question: And the IC80, pseudovirus neutralization [46]?
Answer: 0.022 µg/mL

Question: And the IC80, pseudovirus neutralization [47]?
Answer: > 50 µg/mL

Question: What about the IC80, pseudovirus neutralization [48] of the same binder?
Answer: 7 ng/mL

Question: And the IC80, pseudovirus neutralization [49]?
Answer: 1.01 µg/mL

Question: And the IC80, pseudovirus neutralization [50]?
Answer: 0.029 µg/mL
